What was measured:
[1] = target: T1, B Cell Maturation Antigen (BCMA) on cells (UniProt Q02223 1-184, limits assumed); assay: flow cytometry, serial diluted scFv on BCMA/CHOK1 cells
T1 construct: whole, on cells; One molecule is used for the recombinant (CHOK1) and the endogenous (myeloma lines) cell-surface BCMA; also called tumor necrosis factor receptor superfamily member 17 (TNFRSF17); CD269
T1 sequence (looked up): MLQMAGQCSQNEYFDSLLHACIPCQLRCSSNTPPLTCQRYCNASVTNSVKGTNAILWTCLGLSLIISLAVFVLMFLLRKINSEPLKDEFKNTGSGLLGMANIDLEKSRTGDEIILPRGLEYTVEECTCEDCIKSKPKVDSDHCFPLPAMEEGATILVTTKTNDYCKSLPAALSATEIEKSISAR
Method: Cells were spun down at 1200 rpm for 6 minutes at 4° C. to remove primary antibodies. Cells were then washed once with 200 μL of full medium per well. Samples were detected with premixed anti-His Biotin Streptavidin Alexa fluor 647 by adding 100 μL of diluted secondary antibody and incubated at 4° C. for 30 minutes in the dark. Samples were spun down at 1200 rpm for 5 minutes at 4° C. and washed twice with 200 μL of 1×PBS per well. Reconstituted samples in 200 μL of 1×PBS and read on Attune NxT cytometer. Analysis was done by Attune NxT software plotting the overlaying the histogram of anti-BCMA scFvs binding onto both negative and target cell lines. […] The BCMA cell binding affinity for exemplary anti-BCMA antibodies (in scFv format) was also generated with serial diluted scFvs as described above.

Human BCMA-Fc [2] = target: T2, Human BCMA-Fc (human, UniProt Q02223 1-54); assay: SPR, Biacore T200, BCMA-Fc captured on Protein A chip, scFv as analyte
T2 construct: also called human BCMA-Fc protein; recombinant BCMA-Fc fusion protein; not shown: Fc part (captured by anti-human Fc antibody or Protein A)
T2 sequence (looked up): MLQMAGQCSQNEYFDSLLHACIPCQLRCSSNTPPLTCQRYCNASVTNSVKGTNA
Method: Kinetic analysis of anti-BCMA scFvs have been assessed by SPR technology with Biacore T200. The assay was run with Biacore T200 control software version 2.0. Protein A sensor chip was used to capture Fc fusion protein in the assay. For each cycle, 1 μg/mL of human BCMA-Fc protein was captured for 60 seconds at flow rate of 10 ul/min on flow cell 2 in 1×HBSP buffer on Protein A sensor chip. 2-fold serial diluted HIS tag purified anti-BCMA scFv was injected onto both reference flow cell 1 and BCMA-Fc captured flow cell 2 for 150 seconds at flow rate of 30 ul/min followed by wash for 300 seconds. The flow cells were then regenerated with Glycine pH2 buffer (GE) for 30 seconds at flow rate of 30 ul/mins. 8 concentration points from 300-0 nM was assayed per anti-BCMA scFv in a 96 well plate. The kinetics of scFvs binding to BCMA protein was analyzed with Biacore T200 evaluation software version 3.0. The specific binding response unit was derived from subtraction of binding to reference flow cell 1 from BCMA captured flow cell 2.

Human BCMA-Fc [3] = target: T2, Human BCMA-Fc; assay: ELISA, human BCMA-Fc captured by anti-human Fc, scFv detected with anti-Flag HRP
Method: An ELISA assay was developed to determine the EC₅₀ of anti-BCMA antibodies. Briefly, 384 well plate was immobilized with anti-human Fc antibody at final concentration of 2 μg/mL in 1×PBS in total volume of 25 uL per well. The plate was incubated overnight at 4° C. followed by blocking with 80 μL of superblock per well for 1 hour. Human BCMA-Fc was captured through immobilized anti-hFc antibody. Purified anti-BCMA scFvs were 2-fold serial titrated from 200 nM. 25 μL of diluted scFv was added to human BCMA immobilized wells and incubated for 1 hour with shaking. The BCMA binding was detected by adding 25 μL of anti-Flag HRP diluted at 1:5000 in 1×PBST. In between each step, the plate was washed 3 times with 1×PBST in a plate washer. The plate was then developed with 20 μL of TMB substrate for 5 mins and stopped by adding 20 μL of 2 N sulfuric acid. The plate was read at OD450 nm Biotek plate reader and then plotted in Prism 8.1 software.

[4] = target: T1, B Cell Maturation Antigen (BCMA) on …; assay: flow cytometry on H929 multiple myeloma cells (endogenous BCMA)
[5] = target: T1, B Cell Maturation Antigen (BCMA) on …; assay: flow cytometry on MM1R multiple myeloma cells (endogenous BCMA)

Binder	EC50 [1] [nM]	Kd (Human BCMA-Fc [2]) [nM]	koff (Human BCMA-Fc [2]) [s⁻¹]	kon (Human BCMA-Fc [2]) [M⁻¹ s⁻¹]	EC50 (Human BCMA-Fc [3]) [nM]	EC50 [4] [nM]	EC50 [5] [nM]
BC-01 (anti-BCMA antibody in scFv format) (scFv, Human scFv from mRNA display, VH-(G4S)3-VL, expressed in E. coli periplasm, His-purified; not shown: C-terminal flag and 6xHis tag) scFv: EVQLVQSGGGVVQPGGSLRLSCAASGFTFSSYGMHWVRQAPGKGLEWVAFIRYDGSNKYYADSVKGRFTISRDNSKNTLYLQMNSLRAEDTAVYYCAKDLWDGIVGAPAGYWGQGTLVTVSSGGGGSGGGGSGGGGSDVVMTQSPSSLSASVGDRVTITCQASQDISNYLNWYQQKPGKAPKLLIYDASNLETGVPSRFSGSGSGTDFTFTISSLQPEDIATYYCQQYDNLPLTFGGGTKVEIK	18.9	3	0.000431	144000	0.938	–	–
BC-05 (anti-BCMA antibody in scFv format) (scFv, Human scFv from mRNA display, VH-(G4S)3-VL, expressed in E. coli periplasm, His-purified; not shown: C-terminal flag and 6xHis tag) scFv: QMQLVQSGGGVVQPGGSLRLSCAASGFTFSSYGMHWVRQAPGKGLEWVAFIRYDGSNKYYADSVKGRFTISRDNSKNTLYLQMNSLRAEDTAVYYCAKDWEDPLYYYDTPFWGQGTLVTVSSGGGGSGGGGSGGGGSVIWMTQSPSSVSASVGDIITITCQASQDINNYLNWYQLKPGKAPKLLIYDASNVETGVPSRFSGSGSGTDFTFTISSLQPEDTATYYCQQYDKLPYTFGQGTKLEIK	4.91	10.4	0.000646	62400	0.536	–	–
BC-08 (anti-BCMA antibody in scFv format) (scFv, Human scFv from mRNA display, VH-(G4S)3-VL, expressed in E. coli periplasm, His-purified; not shown: C-terminal flag and 6xHis tag) scFv: QVQLVQSGGGVVQPGRSLRLSCAASGFTFSSYAMHWVRQAPGKGLEWVAVISYDGSNKYYADSVKGRFTISRDNAENSVYLQMNSLRAEDTAVYYCARDEHQVVPNYRFDFWGQGSQVTVSSGGGGSGGGGSGGGGSQLVLTQPPSASGTPGQRVTISCSGSGSNIGSNDVSWYQQIPGTASKLLIYWNDQRPSGVPDRFSGSKSGTSASLAISGLQSEDEADYYCAAWDDSLNGWVFGGGTKLTVL	1	0.653	0.00116	1.78e+06	0.299	–	–
BC-03 (anti-BCMA antibody in scFv format) (scFv, Human scFv from mRNA display, VH-(G4S)3-VL, expressed in E. coli periplasm, His-purified; not shown: C-terminal flag and 6xHis tag) scFv: QMQLVQSGGGVVQPGGSLRLSCAASGFTFSSYGMHWVRQAPGKGLEWVAFIRYDGSDKYYADSVKGRFTISRDNSKNTLYLQMNSLRAEDTAVYYCAKDLTTITPGYWGQGTLVTVSSGGGGSGGGGSGGGGSVIQMTQSPSSLSASVGDRVTITCQASQDISNYLNWYQQKPGKAPKLLIYDASNLETGVPSRFSGSGSGTDFTFTISSLQPEDIATYYCQQYDNLPLTFGGGTKVEIK	16.1	11.9	0.00359	302000	2.32	–	–
BC-02 (anti-BCMA antibody in scFv format) (scFv, Human scFv from mRNA display, VH-(G4S)3-VL, expressed in E. coli periplasm, His-purified; not shown: C-terminal flag and 6xHis tag) scFv: QVQLVQSGGGVVQPGGSLRLSCAASGFTFSSYGMHWVRQAPGKVLEWVAFIRYDGSNKYYADSVKGRFTISRDNSKNTLYLQMNSLRAEDTAVYYCAKDWDYYDSSGYYPDALGIWGQGTMVTVSSGGGGSGGGGSGGGGSEIVLTQSPSSLSASVGDRVTITCQASQDISNYLNWYQQKPGKAPKLLIYDASNLETGVPSRFSGSGSGTDFTFTISSLQPEDIATYYCQQYDNLPFTFGPGTKVDIK	84	12.9	0.00118	91600	1.92	–	–
BC-06 (anti-BCMA antibody in scFv format) (scFv, Human scFv from mRNA display, VH-(G4S)3-VL, expressed in E. coli periplasm, His-purified; also called clone BC-06; not shown: C-terminal flag and 6xHis tag) scFv: EVQLVESGGGLVQPGRSLRLSCAASGFTFDDYAMHWVRQAPGKGLEWVSGISWNSGSIGYADSVKGRFTISRDNAKNSLYLQMNSLRAEDTALYYCAKVQPPGAFDIWGQGTMVTVSSGGGGSGGGGSGGGGSDIQLTQSPSFLSASVGDRVSITCRSTQGISSYLGWYQQKPGKAPKLLIYATSTLQSGVPSRFSGSGSGTEFTLTISSLQPEDFATYYCQQLYSFGQGTKLEIK	1.9	7.87	0.00251	319000	0.62	2.85	0.74
BC-07 (anti-BCMA antibody in scFv format) (scFv, Human scFv from mRNA display, VH-(G4S)3-VL, expressed in E. coli periplasm, His-purified; not shown: C-terminal flag and 6xHis tag) scFv: EVQLVESGGGLVQPGRSLRLSCAASGFTFDDYAMHWVRQAPGKGLEWVSGISWNSGSIGYADSVKGRFTISRDNAKNSLYLQMNSLRAEDTALYYCAKVQSPGAFDIWGQGTMVTVSSGGGGSGGGGSGGGGSDIQLTQSPSFLSASVGDRVSITCRSTQGISSYLGWYQQKPGKAPKLLIYATSTLQSGVPSRFSGSGSGTEFTLTISSLQPEDFATYYCQQLYSFGQGTKLEIK	13.2	26.2	0.00592	226000	0.802	–	–
BC-09 (anti-BCMA antibody in scFv format) (scFv, Human scFv from mRNA display, VH-(G4S)3-VL, expressed in E. coli periplasm, His-purified; not shown: C-terminal flag and 6xHis tag) scFv: QVQLVQSGGGVVQPGGSLRLSCAASGFTFSSYGMHWVRQAPGKGLEWVAFIRYDGSNKYYADSVKGRFTISRDNSKNTLYLQMNSLRAEDTAVYYCAKDLWEFGGDYADYWGQGTLVTVSSGGGGSGGGGSGGGGSNIQMTQSPSSLSASVGDRVTITCQASQDISNYLNWYQQKPGKAPKLLIYDASNLETGVPSRFSGSGSGTDFTFTISSLQPEDIATYYCQQYDNLPLTFGGGTKVEIK	5.28	19.6	0.00407	208000	0.597	–	–
